Measured values from publication PMC7538587.
Several values for one entry are separate records, joined by “and”; a condition that tells them apart may be missing. Equal entries are not always repeated.

Assays:
[1] = target: SALT protein (Oryza sativa L. (Pusa basmati-1)) (UniProt A2WPN7); assay: SDS-PAGE without heat denaturation; purified SALT, 1 mg/ml, 12% gel, with SDS and BME, not heated; confirmed by immunoblotting
[2] = target: SALT protein (Oryza sativa L. (Pusa basmati-1)) (UniProt A2WPN7); assay: SAXS; SALT freshly eluted from gel filtration, 5, 11 and 22 mg/ml, 20 °C; molecular weight from SAXS about 32.2-33.4 kDa
[3] = target: SALT protein (Oryza sativa L. (Pusa basmati-1)) (UniProt A2WPN7); assay: SEC; Superdex 200 10/300 GL, 200 µl of 5 mg/ml SALT, 20 mM each of mannose and galactose in sample and buffer; calibrated with marker proteins

## SALT protein (from UniProt A2WPN7 1-145) (natural protein)
[1]
  stoichiometry N: 2 and 4
[2]
  stoichiometry N: 2
[3]
  stoichiometry N: 2
